Assay [1] concerns the target T1, human EphA4 fibronectin type III domain 1-MBP-His protein (human, UniProt P54764 205-440).
T1 construct: also called fibronectin type III domain 1 (FN1); not shown: histidine tag
Briefly: ELISA; domain-MBP-His protein captured by anti-6-His antibody. The protocol:
(§1) Rabbit anti-6-His antibodies (Bethyl Laboratories) were coated onto the wells of a 96-well plate (Nunc). After incubating at 4° C. overnight, the wells were blocked at room temperature for 1 hour by 1% Block Ace (DS Pharma Biomedical). After washing twice with 0.02% Tween 20/PBS (Nacalai Tesque), human EphA4 extracellular region-MBP-His protein, human EphA4 ligand binding domain-MBP-His protein, human EphA4 fibronectin type III domain 1-NBP-His protein, and human EphA4 fibronectin type III domain 2-MBP-His protein (final concentration 10 nM) were seeded into the wells, and incubated at room temperature for 1 hour. After washing 3 times, antibody A (final concentration 10 nM) was supplemented to the wells, and incubated at room temperature for 1 hour. Horseradish peroxidase-labeled goat anti-mouse IgG Fcγ fragment antibody (Jackson ImmunoResearch Laboratories) was added, and incubated at room temperature for 1 hour. After washing 5 times, TMB solution (KPL) was added to the wells, and upon confirmation of modest coloring, an equal amount of quenching solution (2 N H₂SO₄, Wako Pure Chemicals) was added to the wells, and absorbance at 450 nm and 650 nm were read by a microplate reader (PerkinElmer).
as §1, with “domain 1-MBP-His” for “domain 1-NBP-His”, “antibody B” for “antibody A”, “peroxidase-labeled rabbit anti-human” for “peroxidase-labeled goat anti-mouse”, “IgG Fey” for “IgG Fcγ”, “hour.” for “hour. After washing 5 times, TMB solution (KPL) was added to the wells, and upon confirmation of modest coloring, an equal amount of quenching solution (2 N H₂SO₄, Wako Pure Chemicals) was added to the wells, and absorbance at 450 nm and 650 nm were read by a microplate reader (PerkinElmer).”
On the technique in general: In an ELISA, binding on a coated surface is turned into a signal by an enzyme label.

In assay [2] the target is T2, human EphA4 fibronectin type III domain 2-MBP-His protein (human, UniProt P54764 436-547).
T2 construct: also called fibronectin type III domain 2 (FN2); not shown: histidine tag
The assay is described as above. On the procedure: as §1
as §1, with “domain 1-MBP-His” for “domain 1-NBP-His”, “antibody B” for “antibody A”, “peroxidase-labeled rabbit anti-human” for “peroxidase-labeled goat anti-mouse”, “IgG Fey” for “IgG Fcγ”, “hour.” for “hour. After washing 5 times, TMB solution (KPL) was added to the wells, and upon confirmation of modest coloring, an equal amount of quenching solution (2 N H₂SO₄, Wako Pure Chemicals) was added to the wells, and absorbance at 450 nm and 650 nm were read by a microplate reader (PerkinElmer).”

In assay [3] the target is T3, mouse EphA4 extracellular region-SEAP-His protein (mouse).
T3 construct: also called mouse EphA4 extracellular region-SEAP-His 10
The assay can be described thus: competition ELISA; captured mouse EphA4 extracellular region-SEAP-His, competitor biotinylated mouse EphrinA1-Fc chimera (6 nM). On the procedure: (§2) Anti-alkaline phosphatase antibodies (Thermo […]) were coated onto the wells of a 96-well plate (Nunc). After incubating at 4° C. overnight, the wells were blocked at room temperature for 1 hour by 1% Block Ace (DS Pharma Biomedical). After washing 3 times with 0.02% Tween 20/PBS (Thermo […]), mouse EphA4 extracellular region-SEAP-His protein was added to the wells (final concentration 10 nM), and incubated at room temperature for 1 hour. After washing 3 times, the ligand and antibody A (0, 0.003, 0.01, 0.03, 0.1, 0.3, 1, 3, 10, 30, 100, 300, 1000, 3000 nM) were supplemented to the wells. Note that biotinylated mouse EphrinA1-Fc chimera (R&D Systems, final concentration 6 nM) and biotinylated mouse EphrinB2-Fc chimera (R&D Systems, final concentration 2.5 nM) were employed as ligands. After incubating at room temperature for 1 hour and washing 3 times, horseradish peroxidase-labeled streptavidin (GE Healthcare) was added, and incubated at room temperature for 1 hour. After washing 3 times, TMBZ (3,3′, 5,5′-tetramethylbenzidine, Sigma) solution was added to the wells, and incubated at room temperature for 2 minutes. An equal amount of quenching solution (1 N H₂SO₄, Wako Pure Chemicals) was added to the wells, and absorbance at 450 nm was read by a microplate reader (PerkinElmer). […]

Assay [4] has as its target T4, human EphA4 extracellular region-SEAP-His protein (human, UniProt P54764 20-547).
T4 construct: also called human EphA4 extracellular region-SEAP-His 10; not shown: secretory alkaline phosphatase (SEAP); histidine tag
Briefly: competition ELISA; captured human EphA4 extracellular region-SEAP-His, competitor biotinylated human EphrinB3-Fc chimera (2.3 nM).

Assay [5] deals with T3, mouse EphA4 extracellular …. Briefly: competition ELISA; captured mouse EphA4 extracellular region-SEAP-His, competitor biotinylated mouse EphrinB2-Fc chimera (2.5 nM). The protocol: as §2

The values that follow come from US20240010735A1 (EISAI R AND D MANAGEMENT, published 2024).

For orientation: IC50 means the concentration needed to halve the response being measured. A high value points to weaker potency in that assay.

T3 sequence (chain, as listed by the source limits assumed): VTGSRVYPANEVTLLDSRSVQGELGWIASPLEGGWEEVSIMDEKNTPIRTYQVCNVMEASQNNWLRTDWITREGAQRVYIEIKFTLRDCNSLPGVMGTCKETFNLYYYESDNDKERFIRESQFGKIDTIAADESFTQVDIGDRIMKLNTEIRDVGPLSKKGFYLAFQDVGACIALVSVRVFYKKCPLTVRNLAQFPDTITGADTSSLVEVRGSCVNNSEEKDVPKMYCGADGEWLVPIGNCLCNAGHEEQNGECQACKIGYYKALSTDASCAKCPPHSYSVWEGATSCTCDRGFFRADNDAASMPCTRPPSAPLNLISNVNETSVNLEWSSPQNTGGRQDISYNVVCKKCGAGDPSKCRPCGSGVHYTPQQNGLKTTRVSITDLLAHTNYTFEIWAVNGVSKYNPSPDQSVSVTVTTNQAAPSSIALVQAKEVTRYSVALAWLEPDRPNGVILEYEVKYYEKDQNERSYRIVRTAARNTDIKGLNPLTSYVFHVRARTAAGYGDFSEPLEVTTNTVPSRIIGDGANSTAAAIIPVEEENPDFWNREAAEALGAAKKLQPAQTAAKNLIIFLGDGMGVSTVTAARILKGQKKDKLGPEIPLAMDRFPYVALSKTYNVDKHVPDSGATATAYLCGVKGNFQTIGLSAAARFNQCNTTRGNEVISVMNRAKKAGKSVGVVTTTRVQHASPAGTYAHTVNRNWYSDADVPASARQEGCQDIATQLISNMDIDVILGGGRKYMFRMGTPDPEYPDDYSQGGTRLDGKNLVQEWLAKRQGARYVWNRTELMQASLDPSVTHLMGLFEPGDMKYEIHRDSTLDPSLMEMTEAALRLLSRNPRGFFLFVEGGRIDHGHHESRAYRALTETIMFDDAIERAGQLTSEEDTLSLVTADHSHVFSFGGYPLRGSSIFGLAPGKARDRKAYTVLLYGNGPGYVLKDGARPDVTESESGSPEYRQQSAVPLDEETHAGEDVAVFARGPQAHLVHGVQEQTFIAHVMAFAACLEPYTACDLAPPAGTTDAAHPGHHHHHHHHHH
T2 sequence (P54764 436-547 limits assumed): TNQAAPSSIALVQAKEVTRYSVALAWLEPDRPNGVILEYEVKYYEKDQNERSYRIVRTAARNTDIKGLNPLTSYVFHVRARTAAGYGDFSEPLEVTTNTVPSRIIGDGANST
T4 sequence (P54764 20-547): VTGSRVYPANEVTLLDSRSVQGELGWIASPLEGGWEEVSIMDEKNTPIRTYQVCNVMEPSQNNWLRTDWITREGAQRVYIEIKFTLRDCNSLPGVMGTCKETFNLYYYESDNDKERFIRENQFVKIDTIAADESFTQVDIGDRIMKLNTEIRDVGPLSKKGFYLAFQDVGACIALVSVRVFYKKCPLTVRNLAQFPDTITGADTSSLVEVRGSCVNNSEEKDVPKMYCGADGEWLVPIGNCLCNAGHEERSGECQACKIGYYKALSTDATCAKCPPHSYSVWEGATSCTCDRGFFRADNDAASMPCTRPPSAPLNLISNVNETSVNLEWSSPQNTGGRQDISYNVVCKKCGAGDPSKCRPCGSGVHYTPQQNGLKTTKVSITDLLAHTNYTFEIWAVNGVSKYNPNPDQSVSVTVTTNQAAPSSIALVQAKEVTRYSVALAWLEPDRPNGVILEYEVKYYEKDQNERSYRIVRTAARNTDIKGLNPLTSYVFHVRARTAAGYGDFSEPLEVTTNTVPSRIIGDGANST
T1 sequence (P54764 205-440 limits assumed): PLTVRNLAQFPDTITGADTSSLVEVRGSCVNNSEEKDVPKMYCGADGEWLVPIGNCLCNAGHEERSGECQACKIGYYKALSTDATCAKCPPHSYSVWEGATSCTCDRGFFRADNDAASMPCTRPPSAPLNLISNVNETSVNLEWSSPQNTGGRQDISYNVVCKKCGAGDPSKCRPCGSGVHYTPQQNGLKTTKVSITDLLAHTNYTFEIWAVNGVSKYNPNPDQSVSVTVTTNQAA

B1: mouse anti-EphA4 monoclonal antibody (antibody A) (antibody, mouse IgG1, kappa, V domains shown)
VH: QVQLKQSGPSLVQPSQSLSITCTVSGFSLTRYGVHWVRQSPGKGLEWLGVIWRGGSTDYNAAFMSRLSITKDNSKSQVFFKMNSLQADDTAIYYCAKESLFGVYYDYGYYSMDYWGQGTSVTVSS
VL: DIQMTQSPSSLSASLGERVSLTCRASQEISGYLSWLQQKPDGTIKRLIYAASTLDSGVPKRFSGSRSGSDYSLTISSLESEDFADYYCLQYASYPLTFGAGTKLELKR
notes: purified from hybridoma supernatant
For B1, the binding result in assay [1] and in assay [2] was “no binding (tested: 10 nM)” each time. Moreover, the IC50 in assay [3] was ~5.9 nM; in assay [4], ~1.4 nM; in assay [5] it was ~3.1 nM.

B2: humanized anti-EphA4 monoclonal antibody (antibody B) (antibody, human IgG2, V domains shown)
VH: QVQLVESGGGVVQPGRSLRLSCAVSGFSLTRFGVHWVRQAPGKGLEWVAVIWRGGSTDYNAAFMSRLTISKDNSKNTVYLQMNSLRAEDTAVYYCAKESLFGVYYDYGYYSMDYWGQGTTVTVSS
VL: DIQMTQSPSSLSASVGDRVTITCRASQEISGYLSWLQQKPGKAPKRLIYAASTLDSGVPSRFSGSRSGTEYTLTISSLQPEDFATYYCLQYASYPLTFGGGTKVEIKR
notes: expressed in Expi293F cells; also called humanized antibody of antibody A; HK2-42 / L1-8
As for B2, the binding result in assay [1] and in assay [2] was “no binding (tested: 10 nM)” in each case. In addition, the IC50 in assay [3] is ~8.7 nM; in assay [4], ~1.6 nM; in assay [5] it was ~4.2 nM.
